The values below come from patent US5910570A, “Cloned DNA encoding a UDP-GalNAc: polypeptide N-acetylgalactosaminy-ltransferase” (Pharmacia & Upjohn Company, priority 1997, dated 1999).

Holding throughout (assay type): biochemical, bovine
Substrate in data set [1]: C[C@@H](O)[C@H](NC(=O)[C@@H](N)CCCNC(=N)N)C(=O)N1CCC[C@H]1C(=O)N1CCC[C@H]1C(=O)N1CCC[C@H]1C(=O)O
Put plainly: Determination of kinetic parameters for acceptor peptides (Dowex-2 assay). The settings on record: other: acceptor peptide; 150 μM UDP-GalNAc, 20 minutes; means ± S.E. (n = 3); pH 7.2. The procedure: (§1) The transfer of N-acetylgalactosamine to peptide acceptors is assayed by two different assays. The concentration of UDP-GalNAc is saturating in all assays; a Km of 8 μM is reported for bovine colostrum GalNAc-transferase (Elhammer and Kornfeld, 1986). For the determination of kinetic parameters the reaction mixture contains 50 mM Imidazole, pH 7.2, 10 mM MnCl2, 0.5% Triton X-100, 150 μM UDP-GalNAc, approximately 120,000 cpm of UDP-[1-^3 H]-GalNAc, varying concentrations of acceptor (see individual experiments) and approximately 5 mU of enzyme in a final volume of 40 μl; standard incubation time is 20 minutes. The reaction is terminated by placing the samples in a boiling water bath for 1.5 minutes. The reaction product (glycosylated peptide) is separated from unreacted UDP-GalNAc by chromatography on Dowex-2 columns (0.5 ml bed volume) equilibrated in water; the run-through fraction (2.5 ml) containing the glycosylated peptide is collected, supplemented with scintillation fluid and counted for radioactivity. For the determination of the low levels of transfer to serine, the assay conditions are as follows: 50 mM Imidazole, pH 7.2, 10 mM MnCl2, 0.5% Triton X-100, 150 μM UDP-GalNAc, approximately 260,000 cpm UDP-[^3 H]-GalNAc and 3.2 mM acceptor peptide (the concentration of RSPPP is 3.7 mM). The assays are incubated for 20 minutes ([…]) [SEQ ID NO:14] or 8 hours ([…] [SEQ ID NO:15], PPAdSSdSAPG and RSPPP [SEQ ID NO:13]). Following incubation, the enzyme is inactivated by placing the samples on a boiling water bath for 1.5 minutes. The samples are then allowed to cool and the reaction products are separated from unreacted UDP-GalNAc and free GalNAc by chromatography on a Biogel P-2 column (1×50 cm) equilibrated in 7% isopropanol; thirty 1.3 ml fractions are collected.
(§2) Assays were carried out as described in Materials and Methods.
(§3) Assay time was 20 minutes.
(§4) The values are given as means ± S.E. (n = 3)

Substrate in data set [2]: C[C@H](NC(=O)[C@@H]1CCCN1C(=O)[C@@H]1CCCN1)C(=O)N[C@H](CO)C(=O)N[C@H](C(=O)N[C@H](CO)C(=O)N[C@@H](C)C(=O)N1CCC[C@H]1C(=O)NCC(=O)O)[C@@H](C)O
Described as above. The settings on record: other: calculated assuming that S0 << Km; pH 7.2. The procedure:
as §1, §2, §3, §4

Substrate in data set [3]: C[C@H](NC(=O)[C@@H]1CCCN1C(=O)[C@@H]1CCCN1)C(=O)N[C@@H](CO)C(=O)N[C@H](C(=O)N[C@@H](CO)C(=O)N[C@@H](C)C(=O)N1CCC[C@H]1C(=O)NCC(=O)O)[C@@H](C)O
The description is as above. The settings on record: other: acceptor peptide; 150 μM UDP-GalNAc, 20 minutes; means ± S.E. (n = 3); pH 7.2. The procedure:
as §1, §2, §3, §4

Substrate in data set [4]: C[C@H](NC(=O)[C@@H]1CCCN1C(=O)[C@@H]1CCCN1)C(=O)N[C@@H](CO)C(=O)N[C@@H](CO)C(=O)N[C@@H](CO)C(=O)N[C@@H](C)C(=O)N1CCC[C@H]1C(=O)NCC(=O)O
Described as above. To be noted: other: calculated assuming that S0 << Km; pH 7.2. Here is the method: as §1, §2, §3, §4

Substrate in data set [5]: N=C(N)NCCC[C@H](N)C(=O)N[C@@H](CO)C(=O)N1CCC[C@H]1C(=O)N1CCC[C@H]1C(=O)N1CCC[C@H]1C(=O)O
Described as above. The settings on record: other: calculated assuming that S0 << Km; pH 7.2. Here is the method: as §1, §2, §3, §4

Substrate in data set [6]: C[C@H](NC(=O)[C@@H]1CCCN1C(=O)[C@@H]1CCCN1)C(=O)N[C@@H](CO)C(=O)N[C@H](C(=O)N[C@@H](CO)C(=O)N[C@@H](C)C(=O)N1CCC[C@H]1C(=O)NCC(=O)O)[C@@H](C)O
Put plainly: Kinetic parameters with the cloned soluble GalNAc-transferase (Bond Elut assay). The settings on record: other: GalNAcTs; double reciprocal plots.

Substrate in data set [7]: CC(C)C[C@H](NC(=O)[C@@H]1CCCN1C(=O)[C@H](C)NC(=O)[C@H](C)NC(=O)[C@H](CO)NC(=O)[C@H](C)NC(=O)[C@H](C)NC(=O)[C@H](CC(=O)O)NC(=O)[C@@H]1CCCN1C(=O)[C@@H]1CCCN1)C(=O)N[C@@H](CCCNC(=N)N)C(=O)O
The data set is described as above. The settings on record: other: GalNAcTs; double reciprocal plots.

As a reminder, the Km is the concentration of substrate that gives half-maximal velocity. The kcat is the number of substrate molecules converted per active site and unit of time at saturation. The term kcat/Km denotes the turnover number divided by the Michaelis constant.

Several values for one entry are separate records, joined by “and”; a condition that tells them apart may be missing. Identical values can stand only once.

B1: bovine colostrum GalNAc-transferase (Bos taurus) (protein)
chain: GLPAGDVLEPVQKPHEGPGEMGKPVVIPKEDQEKMKEMFKINQFNLMASEMIALNRSLPDVRLEGCKTKVYPDNLPTTSVVIVFHNEAWSTLLRTVHSVINRSPRHMLEEIVLVDDASERDFLKRPLESYVKKLKVPVHVIRMEQRSGLIRARLKGAAVSKGQVITFLDAHCECTVGWLEPLLARIKHDRKTVVCPIIDVISDDTFEYMAGSDMTYGGFNWKLNFRWYPVPQREMDRRKGDRTLPVRTPTMAGGLFSIDRDYFQEIGTYDAGMDIWGGENLEISFRIWQCGGTLEIVTCSHVGHVFRKATPYTFPGGTGQIINKNNRRLAEVWMDEFKNFFYIISPGVTKVDYGDISSRLGLRHKLQCRPFSWYLENIYPDSQIPRHYFSLGEIRNVETNQCLDNMARKENEKVGIFNCHGMGGNQVFSYTANKEIRTDDLCLDVSKLNGPVTMLKCHHLKGNQLWEYDPVKLTLQHVNSNQCLDKATDEDSQVPSIRDCSGSRSQQWLLRNVTLPEIF
notes: from tissue; host or cells: bovine colostrum
With B1, the Km was found to be 3.3 mM in data set [1] and 6 mM in data set [3]. Further, the kcat amounted to 0.604 ± 0.083 s⁻¹ in data set [1] and 1.81 ± 0.357 s⁻¹ in data set [3]. Also, the kcat/Km in data set [1] is 183 M⁻¹ s⁻¹; in data set [2] it was 1.2 M⁻¹ s⁻¹; in data set [3], 301 M⁻¹ s⁻¹; in data set [4] it was 8.5 M⁻¹ s⁻¹; in data set [5] it was 0.4 M⁻¹ s⁻¹.

B2: cloned soluble GalNAc-transferase (GalNAcTs) (Bos taurus) (protein)
chain: LEPVQKPHEGPGEMGKPVVIPKEDQEKMKEMFKINQFNLMASEMIALNRSLPDVRLEGCKTKVYPDNLPTTSVVIVFHNEAWSTLLRTVHSVINRSPRHMLEEIVLVDDASERDFLKRPLESYVKKLKVPVHVIRMEQRSGLIRARLKGAAVSKGQVITFLDAHCECTVGWLEPLLARIKHDRKTVVCPIIDVISDDTFEYMAGSDMTYGGFNWKLNFRWYPVPQREMDRRKGDRTLPVRTPTMAGGLFSIDRDYFQEIGTYDAGMDIWGGENLEISFRIWQCGGTLEIVTCSHVGHVFRKATPYTFPGGTGQIINKNNRRLAEVWMDEFKNFFYIISPGVTKVDYGDISSRLGLRHKLQCRPFSWYLENIYPDSQIPRHYFSLGEIRNVETNQCLDNMARKENEKVGIFNCHGMGGNQVFSYTANKEIRTDDLCLDVSKLNGPVTMLKCHHLKGNQLWEYDPVKLTLQHVNSNQCLDKATDEDSQVPSIRDCSGSRSQQWLLRNVTLPEIF
notes: The plasmid pAC373-GalNAcT (Homa et al., 1993) which contains the full length GalNAc-transferase gene; honeybee melittin signal peptide (21 aa) (N, cleaved yes); made in house; host or cells: Sf9 cells / baculovirus, purified from serum-free culture medium on apomucin-Sepharose
On to B2, for which the Michaelis constant (Km) in data set [6] is 6.5 mM; in data set [7], 3.6 mM and 3.5 mM.
